Assay results: publication PMC5244374

Target: homotarsinin (Htr), cystine-linked homodimer (Phyllomedusa tarsius)
Assay: SEC; 2 mg/mL peptide, Superdex Peptide 10/300 GL, 20 mM phosphate pH 7.0, 0.3 M NaCl, room temperature, 0.3 mL/min; homotarsinin and distinctin compared by retention time

“homotarsinin (Htr), cystine-linked homodimer (peptide)” gave a stoichiometry N of 2.
